Values of other authors as cited in paper PMC6051640.

Biological target: retinol binding protein (Homo sapiens) (UniProt P02753)

**Q.** For Stra6 (from UniProt Q9BX79), which Kd is on record?
**A.** 0.059 µM
